The values below come from publication PMC6509336, “Wnt5a is a TLR2/4-ligand that induces tolerance in human myeloid cells” (Communications Biology, 2019).

Holding throughout (experiment): SPR; Biacore 3000, CM5 chip; rhTLR2, rhTLR4/MD2 and rhTLR4 amine-coupled (4.0, 4.7, 4.0 kRU); Wnt5a or Wnt3a injected at 25-100 nM for 2 min at 30 ul/min in HBS-P (10 mM HEPES, 0.15 M NaCl, 0.005% P20, pH 7.4) with ZnCl2 and CaCl2; Req from a 1:1 fit plotted against concentration and fit to a one-site hyperbola (steady-state KD)
Common to all, as to conditions: both partners purified

One test addresses T1, rhTLR2 (human, UniProt O60603 21-588).
T1 construct: toll-like receptor 2, recombinant human protein from R&D Systems; No catalogue number, tags or construct limits are printed; source: bought: R&D Systems

For another test, the target named is T2, rhTLR4 (human, UniProt O00206 24-631).
T2 construct: toll-like receptor 4, recombinant human protein from R&D Systems; No catalogue number or construct limits are printed; also called rhTLR4-his; source: bought: R&D Systems
T2 sequence (O00206 24-631): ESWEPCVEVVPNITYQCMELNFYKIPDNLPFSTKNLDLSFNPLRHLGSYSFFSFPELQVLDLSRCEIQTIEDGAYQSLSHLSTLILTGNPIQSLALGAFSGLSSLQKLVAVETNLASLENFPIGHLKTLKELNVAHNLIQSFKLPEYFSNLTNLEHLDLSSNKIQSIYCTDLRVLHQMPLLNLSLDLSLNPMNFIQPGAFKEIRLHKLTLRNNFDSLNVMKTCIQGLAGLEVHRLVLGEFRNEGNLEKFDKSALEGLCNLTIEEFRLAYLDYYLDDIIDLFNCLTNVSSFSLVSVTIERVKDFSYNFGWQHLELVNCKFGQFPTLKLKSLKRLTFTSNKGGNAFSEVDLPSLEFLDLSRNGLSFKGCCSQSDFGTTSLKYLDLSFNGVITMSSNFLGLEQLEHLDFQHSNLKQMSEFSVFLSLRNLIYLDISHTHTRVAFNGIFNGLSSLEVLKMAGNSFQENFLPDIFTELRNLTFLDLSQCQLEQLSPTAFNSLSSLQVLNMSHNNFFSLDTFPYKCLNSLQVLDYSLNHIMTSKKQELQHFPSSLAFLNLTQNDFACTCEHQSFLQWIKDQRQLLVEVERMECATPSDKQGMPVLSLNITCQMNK

In a further test the target is T3, rhTLR4/MD2 (human, UniProt O00206 24-631; Q9Y6Y9 19-160).
T3 construct: toll-like receptor 4 in the recombinant human TLR4/MD2 complex from R&D Systems; MD2 (lymphocyte antigen 96) in the recombinant human TLR4/MD2 complex from R&D Systems; Bought as a preformed complex; No catalogue number, tags or construct limits are printed; source: bought: R&D Systems
T3 sequence (O00206 24-631, chain 1 of 2): as the sequence (O00206 24-631) above
T3 sequence (Q9Y6Y9 19-160, chain 2 of 2): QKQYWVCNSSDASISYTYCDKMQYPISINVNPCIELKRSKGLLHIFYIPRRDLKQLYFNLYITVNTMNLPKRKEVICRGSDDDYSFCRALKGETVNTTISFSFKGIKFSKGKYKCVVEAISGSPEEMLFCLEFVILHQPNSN

T1 sequence (O60603 21-588): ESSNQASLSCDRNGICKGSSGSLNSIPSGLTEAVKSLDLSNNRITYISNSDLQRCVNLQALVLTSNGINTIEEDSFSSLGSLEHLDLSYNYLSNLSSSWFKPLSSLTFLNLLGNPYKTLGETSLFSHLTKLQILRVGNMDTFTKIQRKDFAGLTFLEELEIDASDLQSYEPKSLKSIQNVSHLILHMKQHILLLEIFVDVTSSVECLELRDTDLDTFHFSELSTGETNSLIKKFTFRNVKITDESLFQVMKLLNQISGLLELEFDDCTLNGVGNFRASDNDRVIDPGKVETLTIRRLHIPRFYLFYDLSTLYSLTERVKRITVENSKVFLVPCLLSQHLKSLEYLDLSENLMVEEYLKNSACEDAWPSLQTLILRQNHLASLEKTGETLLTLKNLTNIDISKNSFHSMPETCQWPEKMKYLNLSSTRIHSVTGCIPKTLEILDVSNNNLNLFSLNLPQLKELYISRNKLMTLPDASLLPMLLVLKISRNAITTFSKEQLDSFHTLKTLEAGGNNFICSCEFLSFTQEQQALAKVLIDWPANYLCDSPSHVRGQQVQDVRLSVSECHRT

B1: recombinant human/mouse (rh/m)Wnt5a (ligand, UniProt P41221 62-380, looked up)
chain: IIGAQPLCSQLAGLSQGQKKLCHLYQDHMQYIGEGAKTGIKECQYQFRHRRWNCSTVDNTSVFGRVMQIGSRETAFTYAVSAAGVVNAMSRACREGELSTCGCSRAARPKDLPRDWLWGGCGDNIDYGYRFAKEFVDARERERIHAKGSYESARILMNLHNNEAGRRTVYNLADVACKCHGVSGSCSLKTCWLQLADFRKVGDALKEKYDSAAAMRLNSRGKLVQVNSRFNSPTTQDLVYIDPSPDYCVRNESTGSLGTQGRLCNKTSEGMDGCELMCCGRGYDQFKTVQTERCHCKFHWCCYVKCKKCTEIVDQFVCK
notes: Wnt5a, recombinant human/mouse protein from R&D Systems, molecular weight 38,000; Lyophilized from PBS, EDTA and CHAPS; No catalogue number is printed; also called rWnt5a; source: bought: R&D Systems
For B1, the Kd – broadly, the constant that tells how readily two partners part at equilibrium – with rhTLR2 was 26.5 nM; with rhTLR4, 44.5 nM; with rhTLR4/MD2, 35.5 nM.
